The source of these data is patent CN116724049A (UNIV KOELN; PHILIPPS UNIV T MARBURG, dated 2023).

B1: FnC1t2p1_D4 (antibody, V domains shown)
VH: QVQLVQSGSELKKPGASVKVSCKASGYTFLRFAMNWLRQAPGQGLEWMGWIDTNTGTPTYAQGFTGRFVFSLDTSVSTAYLQISSLKAEDTAVYYCARSLRGANLVPWGQGTLVTVSS
VL: DIQMTQSPSSLSASVGDRVTITCQASQDVSNYLNWYQQQPGKAPKLLIYDAFNLETGVPSRFSGSGSGTDFTFTISSLQPEDIATYYCQQYDNLPLTFGGGTKVEIK
B2: FnC1t2p1_G5 (antibody, V domains shown)
VH: B1 VH
VL: B1 VL
B3: MnC4t2p1_B3 (antibody, V domains shown)
VH: EVQLVESGGHLVQPGRSLRLSCAASGFTFDDYAMHWVRQVPGKGLEWVSGISWNGGILDYADSVKGRFTISRDNAKNSLYLHMRSLRTDDTALYYCAKDLRRQDYYADWYFDLWGRGTLVTVSS
VL: DIQMIQSPSSVSASVGDRVTITCRASQGISSWLAWYQQKPGKAPKLLIYAASTLLSAVPSRFSGSGSGTDFTLTISSLQPEDFATYYCQQGNSFPFTFGPGTIVDV
B4: MnC4t2p2_A4 (antibody, V domains shown)
VH: QVQLVQSGSELKKPGASVKISCKASGYIFINYAMNWVRQAPGQGLEWMGWINTNTGNPTYAQDFTGRFVFSLDTSLSTAYLQISSLEAEDTAVYYCAKIGSRNSLGVWGQGTLVTVSA
VL: EIVLTQSPGTLSLSPGERATLSCRASHSVDRSYLAWYQQKPGLAPRLLIYGASSRATGIPDRFSGSGSGTDFTLTISRLEPEDFALYYCQHFGTSSVTFGRGTRLEIK
B5: MnC2t2p1_C11 (antibody, V domains shown)
VH: QVQLVQSGAEVKKPGSSVKVSCKASGGTFSRYTIIWVRQAPGQGLEWMGRIIPILDIANYAQKFQGRVTITADKSTSTAYMELSSLRSEDTAVYYCAREGGLDYFGSRNSGWTYTWFDPWGQGTLVTVSS
VL: DIQMTQSPSSLSASVGDRVTITCRASQNISSYLNWYQQKPGKAPNLLIYAASSLQSGVPPRFSGSGSGTDFTLTISSLQPEDFATYYCQQSYSTLYSFGQGTKLEIK
B6: MnC2t1p1_A3 (antibody, V domains shown)
VH: EVQLVESGGGLVQPGGSLRLSCAASGFTVSSNYMSWVRQAPGRGLEWVSVIYSGGSTFYADSVKGRFTISRDNSKNTLYLQMNSLRPEDTAVYYCATGARFGESPFDYWGQGTLVTVSS
VL: DIQMTQSPSSVSASVGDRVTITCRASQGISSWLAWYQQKPGKAPKLLIYAASSLQSGVPSRFSGSGSGTDFTLTISSLQPEDFATYYCQQANSFPGTFGQGTKVEIK

This assay deals with SARS-CoV-2的刺突(S)蛋白的受体结合结构域(RBD) (SARS-CoV-2, UniProt P0DTC2 319-541).
In general, Kd refers to the concentration at which binding is half-saturated. Lower therefore signals tighter binding. On to B1, for which binding was put at a Kd of 0.2 nM.

For the molecule B2, binding was put at a Kd of 0.1 nM. Compared with the last molecule, the Kd is about 2-fold lower. B3: the Kd was found to be 0.09 nM. The Kd values of the last two molecules are within 1.5-fold of each other.

B4 showed a Kd of 14 nM. In the case of B5, binding was characterised by a dissociation constant (Kd) of 0.02 nM. Compared with the last molecule, the Kd is about 700-fold lower. B6 came in with a dissociation constant Kd of 0.7 nM.
